Consider one molecule from article PMC11078757, “Ligand efficacy modulates conformational dynamics of the µ-opioid receptor” (Nature, 2024).

The target of this experiment is T1, Gi1 heterotrimer (human Gαi1, Gβ1, Gγ2) (human, UniProt P63096 1-354; P62873 1-340; P59768 1-71).
T1 construct: Gαi1, human; Gβ1, human; Gγ2, cloned together with human Gβ1 in pFastBac Dual; Treated with λ protein phosphatase; Purified with 10 µM GDP; made nucleotide-free in the assay with apyrase where said; Residues of the 3C site may be left on Gβ1 after cleavage; also called G protein; source: Hi5 cells, baculovirus co-infection, purified (Ni-NTA, MonoQ; also SEC for DEER samples); not shown: His6, …
The experiment can be described thus: single-molecule FRET within the labelled receptor (TIRFM); 20 nM µOR–Cy3/Cy5 with 100 µM ligand incubated with 20 µM Gi1, then apyrase (nucleotide-free); complex immobilised via Flag tag, biotinylated M1 Fab and streptavidin; 25 °C, LMNG/CHS micelles, 100 ms frames. The following applies: both partners purified.

B1: µOR∆7(R182C/R273C) labelled with iodoacetamide-conjugated Cy3 and Cy5 (receptor)
chain: GPGNISDSSDPLAPASSSPAPGSWLNLSHVDGNQSDPSGPNRTGLGGSHSLSPQTGSPSMVTAITIMALYSIVCVVGLFGNFLVMYVIVRYTKMKTATNIYIFNLALADALATSTLPFQSVNYLMGTWPFGNILCKIVISIDYYNMFTSIFTLCTMSVDRYIAVTHPVKALDFRTPCNAKIVNVCNWILSSAIGLPVMFMATTKYRQGSIDCTLTFSHPTWYWENLLKICVFIFAFIMPVLIITVCYGLMILRLKSVRMLSGSKEKDCNLRRITRMVLVVVAVFIVCWTPIHIYVIIKALITIPETTFQTVSWHFCIALGYTNSCLNPVLYAFLDENFKRAFREFLIPTSSTIEQQNSARIRQNTREHPSTANTVDRTNHQLENLEAETAPLP
modifications: iodoacetamide-conjugated Cy3 and Cy5 on the introduced cysteines 182 and 273
notes: µ-opioid receptor, Mus musculus, residues 6-398, minimal-cysteine construct µOR∆7 with two introduced labelling cysteines; Tethered to the cover slip via its Flag tag, biotinylated M1 Fab and streptavidin; also called µOR–Cy3/Cy5; source: Sf9 insect cells, baculovirus, purified (Ni-NTA, anti-Flag M1 resin, SEC) in LMNG/CHS micelles; not shown: Flag, N-terminal, kept
Take B1: the binding result is reported as “binds”.
